Two molecules from US12449421 (SICHUAN CANCER HOSPITAL, dated 2025) can be followed below.

Test [1] has as its target recombinant human CD79B extracellular domain (amino acids 29-159), huCD79B (human) (UniProt P40259). Put plainly: Biacore SPR, antibody captured on Protein A chip, huCD79B as analyte, 1:1 kinetic model. (Surface plasmon resonance follows binding to a sensor surface in real time, without labels.)
In test [2] the target is CD79B protein as expressed in Daudi cells and diffuse large B-cell lymphoma tissue (UniProt P40259). Briefly: immunohistochemistry on 69 diffuse large B-cell lymphoma tissue cases; share of cases stained positive.
The target in test [3] is T1, recombinant human CD79B extracellular domain (amino acids 29-159), huCD79B (human, UniProt P40259 29-159).
T1 construct: Immunogen and SPR analyte; No tag or fusion partner is stated; also called human CD79B antigen; CD79B antigen
T1 sequence: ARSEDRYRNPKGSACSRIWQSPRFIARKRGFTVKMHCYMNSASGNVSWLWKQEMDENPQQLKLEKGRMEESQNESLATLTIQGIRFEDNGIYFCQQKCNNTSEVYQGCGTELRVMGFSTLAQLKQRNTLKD
Put plainly: Biacore SPR, antibody captured on Protein A chip, huCD79B as analyte, 1:1 kinetic model. As to the method: The ability of the antibody to bind to the antigen is characterized using Biacore™ Surface Plasmon Resonance (SPR). Specifically, a Protein A chip was used (with channel 1 as the reference channel and channel 2 as the ligand channel). The antibody was immobilized as the ligand in channel 2 of the Protein A chip at a concentration of 10 µg/ml, with an association time of 30 seconds and a flow rate of […].
In this embodiment, the analyte was flowed through both channel 1 and channel 2, with an association time of 60 seconds, a dissociation time of 90 seconds, and a flow rate of 30 µl/min. After the analyte injection was completed, the chip surface was regenerated using glycine buffer with a pH of 1.5. The ligand was immobilized before each analyte injection, and the chip surface was regenerated with the regeneration solution after the analyte injection was completed.
The affinity of the CD79B antibody for human CD79B antigen at the different concentrations mentioned above was determined using Biacore™ SPR. The corresponding analysis software was used to analyze the binding and dissociation with a 1:1 kinetic model.

In general, Kd refers to a measure of binding affinity in units of concentration. In general, koff refers to a measure of how fast the partners let go of each other. For orientation: kon means a measure of how fast the partners come together. In the case of “commercially available CD79B antibody (Abcam, EPR6861)”, in test [1], the Kd amounted to 19.3 nM, the koff stood at 0.00547 s⁻¹ and the kon was found to be 283000 M⁻¹ s⁻¹. For the same molecule, the Pos. Rate (share of IHC-positive cases) in test [2] was 100%.

B1: LBP2-CD79B (anti-CD79B recombinant rabbit monoclonal antibody) (antibody, V domains shown)
VH: QSLEESGGRLVTPGGSLTLTCTVSGIDLSTNVMRWVRQAPGKGLEWIGSMLISGNIYYASWAKGRLTISKTSSTTVDLKMTSLTAADTATYFCTRGRLWGQGTLVTVSS
VL: AQVLTQTPSSVSAAVGGTVTINCQSSQSVWANNYLAWYQQKPGQPPKILIASASTLASGVSSRFKGSGSGTQFTLTISDVQCDDAATYYCLGSYDCSSADCNAFGGGTEVVVKG
notes: the light chain variable region begins QVLTQTP; also called Anti-CD79B Protein Monoclonal Antibody; LBP2-CD79B monoclonal antibody
As to B1, in test [3], the dissociation constant Kd stood at 0.877 nM, the koff was found to be 0.000775 s⁻¹ and the kon turned out to be 844000 M⁻¹ s⁻¹.
